Results taken from article PMC7192620.

T1: RBM3 (UniProt P98179 1-157)
T1 sequence: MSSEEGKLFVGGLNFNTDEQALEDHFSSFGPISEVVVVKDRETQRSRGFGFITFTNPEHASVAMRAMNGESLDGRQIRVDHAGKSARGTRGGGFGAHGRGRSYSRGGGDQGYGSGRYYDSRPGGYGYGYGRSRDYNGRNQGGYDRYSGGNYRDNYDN


Experiments:
RBM3 = target: T1, RBM3; assay: ELONA titration
YBX1 (YB-1) = YBX1 (YB-1) (UniProt P67809 1-324); assay: ELONA titration
YBX1 (YB-1), sequence (P67809 whole entry): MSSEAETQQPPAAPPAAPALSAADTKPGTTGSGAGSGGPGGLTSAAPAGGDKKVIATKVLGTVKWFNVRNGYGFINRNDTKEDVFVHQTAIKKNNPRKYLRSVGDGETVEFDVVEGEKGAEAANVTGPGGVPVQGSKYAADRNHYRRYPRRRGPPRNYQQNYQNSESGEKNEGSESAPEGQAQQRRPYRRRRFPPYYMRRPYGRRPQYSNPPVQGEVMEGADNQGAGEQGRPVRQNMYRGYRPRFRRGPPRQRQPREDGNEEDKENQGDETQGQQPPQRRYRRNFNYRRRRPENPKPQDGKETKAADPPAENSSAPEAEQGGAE

| Binder | binding result (RBM3) | Kd (YBX1 (YB-1)) |
| --- | --- | --- |
| Sequence 7 RC (ssDNA, 5' biotin (5Biosg)) DNA: TCGTCGGCAGCGTCAGATGTGTATAAGAGACAGAGAGACAAAACAGAATCCCCCCCCCCAATTAAGTAACGTACTGCAGTCATGCTAG | no binding | – |
| Sequence 7 (ssDNA, 5' biotin (5Biosg)) DNA: CTAGCATGACTGCAGTACGTTACTTAATTGGGGGGGGGGATTCTGTTTTGTCTCTCTGTCTCTTATACACATCTGACGCTGCCGACGA | – | ~3 nM |
